{"source": "patent US5693502", "key": {"[1]": {"biological_target": "Tth DNA polymerase (rTth) (Thermus thermophilus) (UniProt P52028)", "sequence (P52028 whole entry)": "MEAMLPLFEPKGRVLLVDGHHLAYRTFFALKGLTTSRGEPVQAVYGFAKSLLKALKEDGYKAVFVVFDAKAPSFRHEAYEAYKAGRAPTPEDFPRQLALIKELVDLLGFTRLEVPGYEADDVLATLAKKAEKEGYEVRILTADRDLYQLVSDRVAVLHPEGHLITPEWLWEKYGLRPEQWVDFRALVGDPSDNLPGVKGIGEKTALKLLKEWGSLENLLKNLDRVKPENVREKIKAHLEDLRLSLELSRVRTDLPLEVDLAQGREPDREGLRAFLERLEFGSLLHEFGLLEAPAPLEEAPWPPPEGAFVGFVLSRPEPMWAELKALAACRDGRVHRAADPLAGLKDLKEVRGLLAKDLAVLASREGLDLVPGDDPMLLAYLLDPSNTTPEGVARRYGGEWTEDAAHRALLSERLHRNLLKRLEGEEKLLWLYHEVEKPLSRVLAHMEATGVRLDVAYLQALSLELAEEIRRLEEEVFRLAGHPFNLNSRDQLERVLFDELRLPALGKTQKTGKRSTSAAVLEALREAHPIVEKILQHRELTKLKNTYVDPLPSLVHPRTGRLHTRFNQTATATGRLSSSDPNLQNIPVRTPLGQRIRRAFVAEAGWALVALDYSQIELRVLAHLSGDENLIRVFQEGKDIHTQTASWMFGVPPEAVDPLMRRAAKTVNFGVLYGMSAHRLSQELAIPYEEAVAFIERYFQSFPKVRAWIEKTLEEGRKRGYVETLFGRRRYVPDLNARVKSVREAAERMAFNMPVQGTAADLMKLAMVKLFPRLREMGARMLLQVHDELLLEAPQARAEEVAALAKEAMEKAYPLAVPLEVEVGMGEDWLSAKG", "experiment": "filter"}, "[2]": {"biological_target": "Taq DNA polymerase (rTaq) (Thermus aquaticus) (UniProt P19821)", "sequence (P19821 whole entry)": "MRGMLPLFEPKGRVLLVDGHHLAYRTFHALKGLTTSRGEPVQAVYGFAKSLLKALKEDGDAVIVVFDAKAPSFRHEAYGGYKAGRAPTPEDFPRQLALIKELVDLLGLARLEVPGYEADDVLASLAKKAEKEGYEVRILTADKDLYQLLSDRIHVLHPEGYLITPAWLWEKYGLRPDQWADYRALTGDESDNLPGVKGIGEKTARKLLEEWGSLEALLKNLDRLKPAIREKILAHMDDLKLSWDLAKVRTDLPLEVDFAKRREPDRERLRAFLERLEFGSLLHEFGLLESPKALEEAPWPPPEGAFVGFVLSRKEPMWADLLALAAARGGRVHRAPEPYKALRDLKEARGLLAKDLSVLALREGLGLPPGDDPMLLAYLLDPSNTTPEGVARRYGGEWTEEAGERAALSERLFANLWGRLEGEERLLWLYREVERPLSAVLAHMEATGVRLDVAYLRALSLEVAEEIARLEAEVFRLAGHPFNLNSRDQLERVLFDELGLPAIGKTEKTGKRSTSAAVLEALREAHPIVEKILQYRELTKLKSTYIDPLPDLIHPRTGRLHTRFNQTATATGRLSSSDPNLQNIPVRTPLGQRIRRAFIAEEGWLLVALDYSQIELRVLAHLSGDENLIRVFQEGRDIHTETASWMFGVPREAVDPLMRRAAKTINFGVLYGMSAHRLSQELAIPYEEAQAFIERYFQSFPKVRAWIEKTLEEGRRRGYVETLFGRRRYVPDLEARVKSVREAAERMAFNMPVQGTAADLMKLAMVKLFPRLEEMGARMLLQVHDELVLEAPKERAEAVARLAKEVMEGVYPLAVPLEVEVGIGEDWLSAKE", "experiment": "FP_none"}, "[3]": {"biological_target": "Taq DNA polymerase (rTaq) (Thermus aquaticus) (UniProt P19821)", "experiment": "filter", "conditions": "room temperature"}}, "note": "pKd: −log10 of the molar value."}
{"sequence": "TTCTCGGTTGGTCTCTGGCGGAGCNNNNNNNNNNNNNNNNNNNNNNNNNNNNNNTCTTGTGTATGATTCGCTTTTCCC [Taq-enriched ssDNA pool (round 12)]", "values": [{"measurement": "pKd", "setting": "[1]; cross binding of Taq-selected pool, room temperature", "value": 9.70}, {"measurement": "pKd", "setting": "[2]", "value": 8.46}]}
{"sequence": "TTCTCGGTTGGTCTCTGGCGGAGCNNNNNNNNNNNNNNNNNNNNNNNNNNNNNNTCTTGTGTATGATTCGCTTTTCCC [Tth-enriched ssDNA pool (round 10)]", "values": [{"measurement": "pKd", "setting": "[1]; 50 mM Bicine-KOH pH 8.3, 90 mM KCl, 3.5 mM Mn(OAc)2, tRNA, 0.01% hSA, room temperature", "value": 8.30}, {"measurement": "pKd", "setting": "[3]; cross binding of Tth-selected pool, saturates at about 50%, about half of pool not interacting", "value": 9.52}]}
{"sequence": "TTCTCGGTTGGTCTCTGGCGGAGCNNNNNNNNNNNNNNNNNNNNNNNNNNNNNNTCTTGTGTATGATTCGCTTTTCCC [unselected random 30N ssDNA pool]", "values": [{"measurement": "pKd", "setting": "[1]; unselected pool, Bicine-KOH pH 8.3, 90 mM KCl, 3.5 mM Mn(OAc)2, room temperature", "value": 7.15}, {"measurement": "pKd", "setting": "[3]; unselected pool, 10 mM Tris-HCl pH 8.3, 50 mM KCl, 2.5 mM MgCl2, tRNA, 0.01% hSA", "value": "< 7.30"}]}
